Experiment [1] addresses human α-CGRP fragment 25-37 (human). In words: Biacore 25 C, Fab over N-biotinylated fragment on SA chip. On the technique in general: SPR reads the build-up and loss of mass on a sensor chip optically.
The target in experiment [2] is human α-CGRP 1-37 (WT) (human). In words: Biacore 25 C, Fab over N-biotinylated CGRP on SA chip.
The target in experiment [3] is human α-CGRP 1-37 (WT) (human). The experiment in a line: Biacore 37 C, Fab over N-biotinylated CGRP on SA chip.
The target of a further experiment is rat α-CGRP (1-37) (rat). In words: Biacore 37 C, Fab over N-biotinylated rat α-CGRP on SA chip.

pKd: −log10 of the molar value.

This note sets out measurements from patent US20180162931A1.

The term pKd denotes −log10 of the Kd, conventionally taken in molar units.

Chain of human α-CGRP 1-37 (WT) (human) (peptide, as listed by the source): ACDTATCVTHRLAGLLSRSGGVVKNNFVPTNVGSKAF
Chain of rat α-CGRP (1-37) (rat) (peptide, as listed by the source): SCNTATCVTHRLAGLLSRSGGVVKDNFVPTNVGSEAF

In the case of “anti-CGRP monoclonal antibody 4901 (Sigma, Product No. C7113), Fab fragment”, in experiment [1], the fold lower affinity than binding to full length human α-CGRP is 6 fold. The pKd in experiment [2] was 7.21; in experiment [3], 6.86; in the experiment with rat α-CGRP (1-37) (rat) it was 8.47.
